Assay results published in patent publication US20070065878A1.

Tests used:
[1] = target: T1, A3 (TEVopt library clone)
T1 chain: ALYIQG

[2] = target: T2, E05 (TEV substrate clone, 5X library)
T2 chain: RDDGY

[3] = target: T3, H04 (TEV substrate clone, 5X library)
T3 chain: MEDLM

[4] = target: T4, E09 (TEV substrate clone, 5X library)
T4 chain: SEPLR

[5] = target: T5, E01 (TEV substrate clone, 5X library)
T5 chain: EEYLW

[6] = target: T6, G03 (TEV substrate clone, 5X library)
T6 chain: GDMGY

[7] = target: T7, A05 (TEV substrate clone, 5X library)
T7 chain: FEDLL

[8] = target: E03 (TEV substrate clone, 5X library)
[9] = target: T8, G02 (TEV substrate clone, 5X library)
T8 chain: GEAGF

[10] = target: T9, D08 (TEV substrate clone, 5X library)
T9 chain: LEWLK

[11] = target: Control (TEV substrate ENLYFQS)
[12] = target: T10, A06 (TEV substrate clone, 5X library)
T10 chain: FEDGL

[13] = target: T11, C11 (TEV substrate clone, 5X library)
T11 chain: DGALY

[14] = target: T12, E11 (TEV substrate clone, 5X library)
T12 chain: WESLY

[15] = target: T13, A4 (TEVopt library clone)
T13 chain: VLYLQS

[16] = target: T14, F03 (TEV substrate clone, 5X library)
T14 chain: LESLV

[17] = target: T15, B6 (TEVopt library clone)
T15 chain: EVYVQG

[18] = target: T16, C05 (TEV substrate clone, 5X library)
T16 chain: REVGY

[19] = target: T17, C5 (TEVopt library clone)
T17 chain: ELYAQG

[20] = target: T18, D04 (TEV substrate clone, 5X library)
T18 chain: GEALF

[21] = target: T19, F02 (TEV substrate clone, 5X library)
T19 chain: EEYLW

[22] = target: T20, G05 (TEV substrate clone, 5X library)
T20 chain: LRELW

[23] = target: T21, F11 (TEV substrate clone, 5X library)
T21 chain: GEPLW

[24] = target: T22, B09 (TEV substrate clone, 5X library)
T22 chain: LEQLI

[25] = target: T23, D09 (TEV substrate clone, 5X library)
T23 chain: MEMLR

[26] = target: T24, D5 (TEVopt library clone)
T24 chain: SLYWQG

[27] = target: T25, B11 (TEV substrate clone, 5X library)
T25 chain: GETVY

[28] = target: T26, C6 (TEVopt library clone)
T26 chain: QLYFQS

[29] = target: T27, C07 (TEV substrate clone, 5X library)
T27 chain: VEPIY

[30] = target: T28, D05 (TEV substrate clone, 5X library)
T28 chain: GEAGV

[31] = target: T29, D10 (TEV substrate clone, 5X library)
T29 chain: LYFQG

[32] = target: T30, G06 (TEV substrate clone, 5X library)
T30 chain: SEDLW

[33] = target: T31, E6 (TEVopt library clone)
T31 chain: VLYTQG

[34] = target: T32, B07 (TEV substrate clone, 5X library)
T32 chain: MEEVY

[35] = target: T33, H06 (TEV substrate clone, 5X library)
T33 chain: EEELW

[36] = target: T34, C3 (TEVopt library clone)
T34 chain: DLYWQG

[37] = target: T35, A1 (TEVopt library clone)
T35 chain: FLYLQG

[38] = target: T36, D1 (TEVopt library clone)
T36 chain: WLYLQG

[39] = target: T37, F09 (TEV substrate clone, 5X library)
T37 chain: GEDLL

[40] = target: T38, D01 (TEV substrate clone, 5X library; as in Table 6)
T38 chain: GEVLW

[41] = target: T39, G08 (TEV substrate clone, 5X library)
T39 chain: MEWLW

[42] = target: T40, H03 (TEV substrate clone, 5X library)
T40 chain: ARQIR

[43] = target: T41, D01 (TEV substrate clone, 5X library; as in Table 5A)
T41 chain: DVQLY

[44] = target: T42, E4 (TEVopt library clone)
T42 chain: SLYVQG

[45] = target: T43, D11 (TEV substrate clone, 5X library)
T43 chain: GEHVY

[46] = target: T44, C04 (TEV substrate clone, 5X library)
T44 chain: RRMAE

[47] = target: T45, F07 (TEV substrate clone, 5X library)
T45 chain: EENLG

[48] = target: T46, C10 (TEV substrate clone, 5X library)
T46 chain: PEVIY

[49] = target: T47, H08 (TEV substrate clone, 5X library)
T47 chain: WEPLW

[50] = target: T48, E07 (TEV substrate clone, 5X library)
T48 chain: ETILY

[51] = target: T49, H07 (TEV substrate clone, 5X library)
T49 chain: EEAVL

[52] = target: T50, B02 (TEV substrate clone, 5X library)
T50 chain: EEELY

[53] = target: T51, F04 (TEV substrate clone, 5X library)
T51 chain: DRELY

[54] = target: T52, F05 (TEV substrate clone, 5X library)
T52 chain: DRELY

[55] = target: T53, D4 (TEVopt library clone)
T53 chain: LLYIQG

[56] = target: T54, D07 (TEV substrate clone, 5X library)
T54 chain: REVLY

[57] = target: T55, H09 (TEV substrate clone, 5X library)
T55 chain: GEALF

[58] = target: T56, A2 (TEVopt library clone)
T56 chain: DVYVQG

[59] = target: T57, H11 (TEV substrate clone, 5X library)
T57 chain: AEWGR

[60] = target: T58, C09 (TEV substrate clone, 5X library)
T58 chain: RELVY

[61] = target: T59, D02 (TEV substrate clone, 5X library)
T59 chain: DSELY

[62] = target: T60, C4 (TEVopt library clone)
T60 chain: ELYWQG

[63] = target: D03 (TEV substrate clone, 5X library)
For % Conversion in this document: test concentration or dose not given here.
For Conversion (group heading of the table) in this document: test concentration or dose not given here.
For Fl (fluorescence without TEV) in this document: unit not given here.
For Fl after TEV in this document: unit not given here.

B1: tobacco etch virus protease (protein)
chain: GESLFKGPRDYNPISSTICHLTNESDGHTTSLYGIGFGPFIITNKHLFRRNNGTLLVQSLHGVFKVKNTTTLQQHLIDGRDMIIIRMPKDFPPFPQKLKFREPQREERICLVTTNFQTKSMSSMVSDTSCTFPSSDGIFWKHWIQTKDGQCGSPLVSTRDGFIVGIHSASNFTNTNNYFTSVPKNFMELLTNQEAQQWVSGWRLNADSVLWGGHKVFMSKPEEPFQPVKEATQLMNELVYSQ
Q: B1 was tested. Which % Conversion (fraction (head says % Conversion)) [1] did it give?
A: 0.922

Q: What about the “Conversion (group heading of the table)” value [2] of the same protein?
A: 30%-50% conversion

Q: What about the “Conversion (group heading of the table)” value [3] of the same protein?
A: 50%-60% Conversion

Q: What about the “Conversion (group heading of the table)” value [4] of the same protein?
A: 60%-90% Conversion

Q: And the “Conversion (group heading of the table)” value [5]?
A: 50%-60% Conversion

Q: And the “Conversion (group heading of the table)” value [6]?
A: 30%-50% conversion

Q: What about the “Conversion (group heading of the table)” value [7] of the same protein?
A: 50%-60% Conversion

Q: And the “Conversion (group heading of the table)” value [8]?
A: 60%-90% Conversion

Q: What about the “Conversion (group heading of the table)” value [9] of the same protein?
A: 30%-50% conversion

Q: And the “Conversion (group heading of the table)” value [10]?
A: 60%-90% Conversion

Q: And the % Conversion (fraction (head says % Conversion)) [11]?
A: 0.664

Q: And the “Conversion (group heading of the table)” value [12]?
A: 30%-50% conversion

Q: What about the “Conversion (group heading of the table)” value [13] of the same protein?
A: 50%-60% Conversion

Q: And the % Conversion (fraction (head says % Conversion)) [14]?
A: 0.77

Q: What about the “Conversion (group heading of the table)” value [14] of the same protein?
A: 60%-90% Conversion

Q: And the Fl (fluorescence without TEV) [14]?
A: 5050

Q: And the Fl after TEV [14]?
A: 1360

Q: What about the % Conversion (fraction (head says % Conversion)) [15] of the same protein?
A: 0.854

Q: What about the “Conversion (group heading of the table)” value [16] of the same protein?
A: 60%-90% Conversion

Q: And the % Conversion (fraction (head says % Conversion)) [17]?
A: 0.61

Q: And the “Conversion (group heading of the table)” value [18]?
A: 30%-50% conversion

Q: And the % Conversion (fraction (head says % Conversion)) [19]?
A: 0.588

Q: What about the “Conversion (group heading of the table)” value [20] of the same protein?
A: 50%-60% Conversion

Q: And the “Conversion (group heading of the table)” value [21]?
A: 30%-50% conversion

Q: What about the “Conversion (group heading of the table)” value [22] of the same protein?
A: 60%-90% Conversion

Q: And the “Conversion (group heading of the table)” value [23]?
A: 50%-60% Conversion

Q: And the % Conversion (fraction (head says % Conversion)) [24]?
A: 0.76

Q: What about the “Conversion (group heading of the table)” value [24] of the same protein?
A: 60%-90% Conversion

Q: What about the Fl (fluorescence without TEV) [24] of the same protein?
A: 3250

Q: And the Fl after TEV [24]?
A: 980

Q: What about the “Conversion (group heading of the table)” value [25] of the same protein?
A: 60%-90% Conversion

Q: What about the % Conversion (fraction (head says % Conversion)) [26] of the same protein?
A: 0.717

Q: And the “Conversion (group heading of the table)” value [27]?
A: 30%-50% conversion

Q: And the % Conversion (fraction (head says % Conversion)) [28]?
A: 0.618

Q: And the “Conversion (group heading of the table)” value [29]?
A: 30%-50% conversion

Q: And the “Conversion (group heading of the table)” value [30]?
A: 30%-50% conversion

Q: What about the “Conversion (group heading of the table)” value [31] of the same protein?
A: 60%-90% Conversion

Q: And the “Conversion (group heading of the table)” value [32]?
A: 60%-90% Conversion

Q: And the % Conversion (fraction (head says % Conversion)) [33]?
A: 0.549

Q: And the “Conversion (group heading of the table)” value [34]?
A: 50%-60% Conversion

Q: What about the “Conversion (group heading of the table)” value [35] of the same protein?
A: 60%-90% Conversion

Q: What about the % Conversion (fraction (head says % Conversion)) [36] of the same protein?
A: 0.734

Q: And the % Conversion (fraction (head says % Conversion)) [37]?
A: 0.918

Q: What about the % Conversion (fraction (head says % Conversion)) [38] of the same protein?
A: 0.68

Q: And the % Conversion (fraction (head says % Conversion)) [39]?
A: 0.71

Q: And the “Conversion (group heading of the table)” value [39]?
A: 60%-90% Conversion

Q: And the Fl (fluorescence without TEV) [39]?
A: 4810

Q: What about the Fl after TEV [39] of the same protein?
A: 1550

Q: And the % Conversion (fraction (head says % Conversion)) [40]?
A: 0.87

Q: And the Fl (fluorescence without TEV) [40]?
A: 3840

Q: What about the Fl after TEV [40] of the same protein?
A: 725

Q: And the “Conversion (group heading of the table)” value [41]?
A: 60%-90% Conversion

Q: What about the “Conversion (group heading of the table)” value [42] of the same protein?
A: 30%-50% conversion

Q: And the “Conversion (group heading of the table)” value [43]?
A: 60%-90% Conversion

Q: What about the % Conversion (fraction (head says % Conversion)) [44] of the same protein?
A: 0.863

Q: What about the “Conversion (group heading of the table)” value [45] of the same protein?
A: 60%-90% Conversion

Q: And the “Conversion (group heading of the table)” value [46]?
A: 60%-90% Conversion

Q: And the “Conversion (group heading of the table)” value [47]?
A: 50%-60% Conversion

Q: And the % Conversion (fraction (head says % Conversion)) [48]?
A: 0.81

Q: And the “Conversion (group heading of the table)” value [48]?
A: 60%-90% Conversion

Q: And the Fl (fluorescence without TEV) [48]?
A: 6110

Q: And the Fl after TEV [48]?
A: 1380

Q: And the % Conversion (fraction (head says % Conversion)) [49]?
A: 0.73

Q: And the “Conversion (group heading of the table)” value [49]?
A: 60%-90% Conversion

Q: And the Fl (fluorescence without TEV) [49]?
A: 3970

Q: And the Fl after TEV [49]?
A: 1250

Q: And the “Conversion (group heading of the table)” value [50]?
A: 50%-60% Conversion

Q: And the % Conversion (fraction (head says % Conversion)) [51]?
A: 0.71

Q: And the “Conversion (group heading of the table)” value [51]?
A: 60%-90% Conversion

Q: What about the Fl (fluorescence without TEV) [51] of the same protein?
A: 2990

Q: And the Fl after TEV [51]?
A: 1040

Q: And the % Conversion (fraction (head says % Conversion)) [52]?
A: 0.72

Q: What about the “Conversion (group heading of the table)” value [52] of the same protein?
A: 60%-90% Conversion

Q: And the Fl (fluorescence without TEV) [52]?
A: 3270

Q: And the Fl after TEV [52]?
A: 1080

Q: And the % Conversion (fraction (head says % Conversion)) [53]?
A: 0.79

Q: What about the “Conversion (group heading of the table)” value [53] of the same protein?
A: 60%-90% Conversion

Q: What about the Fl (fluorescence without TEV) [53] of the same protein?
A: 5910

Q: And the Fl after TEV [53]?
A: 1420

Q: What about the “Conversion (group heading of the table)” value [54] of the same protein?
A: 50%-60% Conversion

Q: What about the % Conversion (fraction (head says % Conversion)) [55] of the same protein?
A: 0.517

Q: What about the “Conversion (group heading of the table)” value [56] of the same protein?
A: 60%-90% Conversion

Q: What about the “Conversion (group heading of the table)” value [57] of the same protein?
A: 60%-90% Conversion

Q: And the % Conversion (fraction (head says % Conversion)) [58]?
A: 0.526

Q: What about the “Conversion (group heading of the table)” value [59] of the same protein?
A: 30%-50% conversion

Q: What about the “Conversion (group heading of the table)” value [60] of the same protein?
A: 30%-50% conversion

Q: And the “Conversion (group heading of the table)” value [61]?
A: 60%-90% Conversion

Q: And the % Conversion (fraction (head says % Conversion)) [62]?
A: 0.689

Q: And the “Conversion (group heading of the table)” value [63]?
A: 60%-90% Conversion
